Measurements as given in the supplement of paper PMC10567573.

B1: KLHL13 (parent)
chain: TGEFLKLPFERLAFVLSSNSLKHC

Variants of: B1
Assay: protein stability index of a GFP-peptide fusion (GPS, HEK-293T) (PSI 1-6); higher = more stable
Conditions: c terminus: a fixed tail appended
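Note: lentivirally expressed fusions sorted by FACS into six bins by GFP to DsRed ratio, PSI derived from sequencing read proportions per bin multiplied by bin number.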

Compared with TGEFLKLPFERVAFVLSSNSLKHC [L12V], TGEFLKLPFERKAFVLSSNSLKHC [L12K] is higher in protein stability index: 1.44 for the first, 2.12 for the second.

First: TGEFLKLPFERCAFVLSSNSLKHC [L12C]
Second: TGEFLKLPFERTAFVLSSNSLKHC [L12T]
The protein stability index of the first is higher: 3.25 for the first, 1.53 for the second.

Going from TGEFLKLPFERPAFVLSSNSLKHC [L12P] to TGEFLKLPFERNAFVLSSNSLKHC [L12N], the protein stability index rises from 1.77 to 2.15.

First: TGEFLKLPFERAAFVLSSNSLKHC [L12A]
Second: TGEFLKLPFERHAFVLSSNSLKHC [L12H]
The protein stability index of the first is lower: 1.99 for the first, 2.27 for the second.

First: TGEFLKLPFERYAFVLSSNSLKHC [L12Y]
Second: TGEFLKLPFERGAFVLSSNSLKHC [L12G]
The protein stability index of the first is lower: 1.76 for the first, 2.83 for the second.

Compared with TGEFLKLPFERFAFVLSSNSLKHC [L12F], TGEFLKLPFERMAFVLSSNSLKHC [L12M] is lower in protein stability index: 3.73 for the first, 3.48 for the second.

Going from TGEFLKLPFEREAFVLSSNSLKHC [L12E] to TGEFLKLPFERQAFVLSSNSLKHC [L12Q], the protein stability index rises from 1.96 to 2.11.

Going from TGEFLKLPFERRAFVLSSNSLKHC [L12R] to TGEFLKLPFERDAFVLSSNSLKHC [L12D], the protein stability index rises from 2.35 to 2.38.

Going from TGEFLKLPFERSAFVLSSNSLKHC [L12S] to TGEFLKLPFERLRFVLSSNSLKHC [A13R], the protein stability index falls from 1.92 to 1.85.

Going from TGEFLKLPFERLKFVLSSNSLKHC [A13K] to TGEFLKLPFERLTFVLSSNSLKHC [A13T], the protein stability index rises from 1.98 to 2.76.

First: TGEFLKLPFERLHFVLSSNSLKHC [A13H]
Second: TGEFLKLPFERLIFVLSSNSLKHC [A13I]
The protein stability index of the first is lower: 1.72 for the first, 3.35 for the second.

First: TGEFLKLPFERLPFVLSSNSLKHC [A13P]
Second: TGEFLKLPFERLCFVLSSNSLKHC [A13C]
The protein stability index of the first is higher: 3.04 for the first, 2.41 for the second.

Going from TGEFLKLPFERLDFVLSSNSLKHC [A13D] to TGEFLKLPFERLEFVLSSNSLKHC [A13E], the protein stability index falls from 2.08 to 1.71.

Compared with TGEFLKLPFERLMFVLSSNSLKHC [A13M], TGEFLKLPFERLYFVLSSNSLKHC [A13Y] is higher in protein stability index: 3.12 for the first, 3.93 for the second.

Compared with TGEFLKLPFERLFFVLSSNSLKHC [A13F], TGEFLKLPFERLSFVLSSNSLKHC [A13S] is higher in protein stability index: 1.67 for the first, 1.99 for the second.

First: TGEFLKLPFERLGFVLSSNSLKHC [A13G]
Second: TGEFLKLPFERLQFVLSSNSLKHC [A13Q]
The protein stability index of the first is lower: 1.6 for the first, 2.26 for the second.

Compared with TGEFLKLPFERLNFVLSSNSLKHC [A13N], TGEFLKLPFERLAFVLSSNCLKHC [S20C] is higher in protein stability index: 1.93 for the first, 3.52 for the second.

Compared with TGEFLKLPFERLAFVLSSNFLKHC [S20F], TGEFLKLPFERLAFVLSSNILKHC [S20I] is higher in protein stability index: 2.55 for the first, 2.7 for the second.

Compared with TGEFLKLPFERLAFVLSSNKLKHC [S20K], TGEFLKLPFERLAFVLSSNELKHC [S20E] is lower in protein stability index: 2.43 for the first, 2.34 for the second.

Going from TGEFLKLPFERLAFVLSSNLLKHC [S20L] to TGEFLKLPFERLAFVLSSNHLKHC [S20H], the protein stability index falls from 3.05 to 1.49.

Compared with TGEFLKLPFERLAFVLSSNDLKHC [S20D], TGEFLKLPFERLAFVLSSNNLKHC [S20N] is higher in protein stability index: 2.29 for the first, 3.25 for the second.

Compared with TGEFLKLPFERLAFVLSSNMLKHC [S20M], TGEFLKLPFERLAFVLSSNGLKHC [S20G] is lower in protein stability index: 3.42 for the first, 2.59 for the second.

Compared with TGEFLKLPHERLAFVLSSNSLKHC [F9H], TGEFLKLPIERLAFVLSSNSLKHC [F9I] is higher in protein stability index: 1.71 for the first, 3.04 for the second.

Compared with TGEFLKLPTERLAFVLSSNSLKHC [F9T], TGEFLKLPPERLAFVLSSNSLKHC [F9P] is higher in protein stability index: 1.65 for the first, 2.04 for the second.

Compared with TGEFLKLPQERLAFVLSSNSLKHC [F9Q], TGEFLKLPRERLAFVLSSNSLKHC [F9R] is lower in protein stability index: 2.6 for the first, 1.65 for the second.

First: TGEFLKLPSERLAFVLSSNSLKHC [F9S]
Second: TGEFLKLPWERLAFVLSSNSLKHC [F9W]
The protein stability index of the first is lower: 2.07 for the first, 3.18 for the second.

First: TGEFLKLPLERLAFVLSSNSLKHC [F9L]
Second: TGEFLKLPMERLAFVLSSNSLKHC [F9M]
The protein stability index of the first is higher: 3.5 for the first, 3.01 for the second.

Compared with TGEFLKLPYERLAFVLSSNSLKHC [F9Y], TGEFLKLPKERLAFVLSSNSLKHC [F9K] is lower in protein stability index: 2.7 for the first, 2.56 for the second.

First: TGEFLKLPVERLAFVLSSNSLKHC [F9V]
Second: TGEFLKLPNERLAFVLSSNSLKHC [F9N]
The protein stability index of the first is higher: 2.23 for the first, 1.8 for the second.

Compared with TGEFLKLPFERLAFVESSNSLKHC [L16E], TGEFLKLPFERLAFVSSSNSLKHC [L16S] is higher in protein stability index: 2.42 for the first, 2.68 for the second.

Going from TGEFLKLPFERLAFVRSSNSLKHC [L16R] to TGEFLKLPFERLAFVQSSNSLKHC [L16Q], the protein stability index rises from 2.21 to 2.24.

Compared with TGEFLKLPFERLAFVASSNSLKHC [L16A], TGEFLKLPFERLAFVMSSNSLKHC [L16M] is higher in protein stability index: 1.74 for the first, 2.25 for the second.

Compared with TGEFLKLPFERLAFVISSNSLKHC [L16I], TGEFLKLPFERLAFVYSSNSLKHC [L16Y] is lower in protein stability index: 2.89 for the first, 1.93 for the second.

First: TGEFLKLPFERLAFVVSSNSLKHC [L16V]
Second: TGEFLKLPFERLAFVGSSNSLKHC [L16G]
The protein stability index of the first is higher: 3.18 for the first, 2.23 for the second.

First: TGEFLKLPFERLAFVNSSNSLKHC [L16N]
Second: TGEFLKLPFERLAFVDSSNSLKHC [L16D]
The protein stability index of the first is higher: 2.93 for the first, 2.37 for the second.

Going from TGEFLKLPFERLAFVCSSNSLKHC [L16C] to TGEFLKLPFERLAFVKSSNSLKHC [L16K], the protein stability index rises from 1.39 to 2.65.

Going from TGEFLKLPFERLAFVPSSNSLKHC [L16P] to TGEFLKLPFERLAFVHSSNSLKHC [L16H], the protein stability index falls from 2.33 to 1.89.

First: TGEFLKLPFERLAFVTSSNSLKHC [L16T]
Second: TGEFLKLPFERLAFVWSSNSLKHC [L16W]
The protein stability index of the first is lower: 1.75 for the first, 2.23 for the second.

First: TGEFLKLPFERLAFVLSWNSLKHC [S18W]
Second: TGEFLKLPFERLAFVLSKNSLKHC [S18K]
The protein stability index of the first is lower: 2.81 for the first, 3.09 for the second.

Compared with TGEFLKLPFERLAFVLSANSLKHC [S18A], TGEFLKLPFERLAFVLSHNSLKHC [S18H] is higher in protein stability index: 1.35 for the first, 2.48 for the second.

Compared with TGEFLKLPFERLAFVLSNNSLKHC [S18N], TGEFLKLPFERLAFVLSDNSLKHC [S18D] is higher in protein stability index: 1.98 for the first, 2.42 for the second.

First: TGEFLKLPFERLAFVLSPNSLKHC [S18P]
Second: TGEFLKLPFERLAFVLSQNSLKHC [S18Q]
The protein stability index of the first is higher: 2.64 for the first, 1.61 for the second.

Compared with TGEFLKLPFERLAFVLSFNSLKHC [S18F], TGEFLKLPFERLAFVLSYNSLKHC [S18Y] is higher in protein stability index: 2.48 for the first, 2.79 for the second.

Going from TGEFLKLPFERLAFVLSCNSLKHC [S18C] to TGEFLKLPFERLAFVLSVNSLKHC [S18V], the protein stability index rises from 3.11 to 4.13.

Compared with TGEFLKLPFERLAFVLSENSLKHC [S18E], TGEFLKLPFERLAFVLSLNSLKHC [S18L] is higher in protein stability index: 2.37 for the first, 3.02 for the second.

Compared with TGEFLKLPFERLAFMLSSNSLKHC [V15M], TGEFLKLPFERLAFCLSSNSLKHC [V15C] is higher in protein stability index: 1.96 for the first, 2.21 for the second.

Going from TGEFLKLPFERLAFHLSSNSLKHC [V15H] to TGEFLKLPFERLAFGLSSNSLKHC [V15G], the protein stability index rises from 2.27 to 3.31.
